“And” between values parts separate entries of the source, which are not always exact repeats. Equal values may be shown once.
T1: CEACAM6 on transfected HeLa cells (human, UniProt P40199 35-320)
T1 construct: whole, on cells; also called HeLa-CEACAM6; HeLa C6
T1 sequence (looked up): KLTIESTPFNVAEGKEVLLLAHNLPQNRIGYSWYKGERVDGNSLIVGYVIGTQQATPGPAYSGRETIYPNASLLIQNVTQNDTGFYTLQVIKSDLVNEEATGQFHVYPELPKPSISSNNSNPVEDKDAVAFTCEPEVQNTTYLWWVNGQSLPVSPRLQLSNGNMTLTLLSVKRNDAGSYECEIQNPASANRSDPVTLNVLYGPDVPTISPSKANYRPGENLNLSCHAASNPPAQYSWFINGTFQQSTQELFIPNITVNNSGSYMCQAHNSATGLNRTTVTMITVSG

T2: CEACAM3 on transfected HeLa cells (human, UniProt P40198 35-252)
T2 construct: whole, on cells; also called HeLa-CEACAM3; HeLa C3
T2 sequence (looked up): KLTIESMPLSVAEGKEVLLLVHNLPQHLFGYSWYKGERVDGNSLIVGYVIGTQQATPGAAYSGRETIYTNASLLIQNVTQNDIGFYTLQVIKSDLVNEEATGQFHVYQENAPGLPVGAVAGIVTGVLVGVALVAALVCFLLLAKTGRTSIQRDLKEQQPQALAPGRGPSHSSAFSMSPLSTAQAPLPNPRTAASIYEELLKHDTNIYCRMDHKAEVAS

T3: CEACAM8 on transfected HeLa cells (human, UniProt P31997 35-320)
T3 construct: whole, on cells; also called HeLa-CEACAM8; HeLa C8
T3 sequence (looked up): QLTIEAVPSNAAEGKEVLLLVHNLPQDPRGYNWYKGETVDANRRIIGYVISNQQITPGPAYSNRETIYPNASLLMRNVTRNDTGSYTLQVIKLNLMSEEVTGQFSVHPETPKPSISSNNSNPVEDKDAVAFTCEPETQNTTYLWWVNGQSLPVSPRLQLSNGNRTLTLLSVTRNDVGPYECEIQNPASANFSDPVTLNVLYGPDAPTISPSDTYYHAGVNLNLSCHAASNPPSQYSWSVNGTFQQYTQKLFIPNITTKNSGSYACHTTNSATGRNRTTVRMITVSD

T4: His-tagged CEACAM1 (human, UniProt P13688 35-428)
T4 construct: 45 kDa SPR analyte; also called CEACAM1-HIS; CEACAM1 analyte
T4 sequence: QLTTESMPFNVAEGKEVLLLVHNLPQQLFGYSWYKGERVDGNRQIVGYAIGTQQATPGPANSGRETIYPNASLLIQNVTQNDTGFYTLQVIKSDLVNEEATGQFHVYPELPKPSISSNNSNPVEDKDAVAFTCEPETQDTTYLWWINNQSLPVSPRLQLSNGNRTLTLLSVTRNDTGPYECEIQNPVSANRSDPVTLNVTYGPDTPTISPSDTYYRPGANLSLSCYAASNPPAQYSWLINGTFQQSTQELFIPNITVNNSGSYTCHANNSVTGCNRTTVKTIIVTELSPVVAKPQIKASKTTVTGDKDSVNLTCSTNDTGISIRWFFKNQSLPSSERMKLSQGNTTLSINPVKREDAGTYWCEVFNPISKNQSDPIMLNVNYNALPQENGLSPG


Assays:
[1] = target: T1, CEACAM6 on transfected HeLa cells; test: flow cytometry, HeLa-CEACAM6 transfectants, % positive cells
Description: Binding selectivity for CEACAM1 was tested for the 24 humanized antibody variants that bound to CEACAM1 (see Table 3), as well as the chimeric control antibody VH0/Vκ0, by flow cytometry on HeLa cells transfected with CEACAM1, 3, 5, 6 and 8. […] There was no evidence of any staining of the HeLa-CEACAM3 or HeLa-CEACAM8 transfectants. […] Due to its favorable affinity to and selectivity for CEACAM1 as well as its favorable expression level, VH1/Vκ8 was chosen as the framework for affinity maturation.

[2] = target: T2, CEACAM3 on transfected HeLa cells; test: flow cytometry, transfected HeLa
How it was run: (§1)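 For each HeLa line stably transfected with one CEACAM family member, staining is given as the measure of binding selectivity. Cultures were held at 37° C with 5.0% CO₂ in DMEM plus 10% fetal bovine serum. The test antibody, a fluorochrome-conjugated isotype-specific secondary antibody and DAPI as viability dye were applied, with acquisition on a Cytoflex and analysis in FlowJo.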

[3] = target: T3, CEACAM8 on transfected HeLa cells; test: flow cytometry, transfected HeLa
How it was run: as §1

His-tagged CEACAM1 [4] = target: T4, His-tagged CEACAM1; test: SPR single-cycle, IgG captured
How it was run: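 Biacore T200 single-cycle kinetics at 25° C in HBS-P+ (pH 7.4): antibodies (purified or HEK EBNA supernatant, 1 μg/ml) captured on Protein A to ~75 RU, His-tagged CEACAM1 analyte at 3.125–50 nM (5-point 2-fold) at 50 μl/min without regeneration. Reference channel Fc1 subtracted.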

His-tagged CEACAM1 [5] = target: T4, His-tagged CEACAM1; test: SPR multi-cycle, IgG captured
Description: As an alternative approach to assess the binding of the 36 antibody combinations and the three control antibodies to CEACAM1, a kinetic analysis was performed on a Biacore T200 (serial no. 1909913) running Biacore T200 Evaluation Software V2.0.1 (Uppsala, Sweden). All experiments were run at 25° C. with HBS-P+ running buffer (pH 7.4) (GE Healthcare, cat. no. BR100671). All kinetic experiments were performed using His-tagged CEACAM1 as the analyte. For all experiments, antibodies were immobilized onto a Series S Protein A sensor chip surface. For kinetic experiments, the amount of immobilized/captured ligand was limited to avoid mass transfer effects at the surface of the chip with the surface ideally having an analyte binding level (Rₘₐₓ) of 50-150 RUs. Using a MW of 45 kDa for the CEACAM1 analyte, 150 kDa for the antibody ligand (estimated value for IgG), 50 RU for Rmax and the stoichiometry (Sm) as 2 due to the ability of each antibody to bind 2 target molecules, a target response level of ˜75 RUs was set for capture of all the sample antibodies.
The signal from the reference channel Fc1 was subtracted from that of Fc2, Fc3 and Fc4 to correct for differences in non-specific binding to a reference surface, a global Rmax parameter was used in the 1-to-1 binding model. The relative Kp compared to […] was calculated by dividing the Kp of the humanized CEACAM antibody variants by that of the chimeric antibody VH0/Vκ0 on the same chip. A summary of the averaged relative Kp obtained for the 12 antibody combinations analyzed using multi cycle kinetics can be found in Table 5.

Binder | binding result [1] | binding result [2] | binding result [3] | Kd (His-tagged CEACAM1 [4]) | relative KD to VH0/Vκ0 (His-tagged CEACAM1 [4]) | Kd (His-tagged CEACAM1 [5]) | average relative KD to VH0/Vκ0 (His-tagged CEACAM1 [5]) | koff (His-tagged CEACAM1 [5]) | kon (His-tagged CEACAM1 [5]) | relative KD to VH0/Vκ0 (His-tagged CEACAM1 [5])
VH1/Vκ7 (antibody, IgG4, V domains shown, IgG4 (S241P), kappa) VH: EVQLLESGGGLVQPGGSLRLSCAASGFIFSSHGMSWVRQAPGKGLEWVATISSGGTYTYYPDSVKGRFTISRDNSKNTLYLQMNSLKAEDTAMYYCARHDFDYDAAWFAYWGQGTLVTVSS VL: EIVLTQSPATLSLSPGERATLSCRANSSVSYMYWYQQKPGQAPRPWIYLTSNRATGVPARFSGSGSGTDFTLTISSLEPEDFATYYCQQWSSNPPTFGQGTKLEIK | no binding | no binding | no binding | 109 nM | 2.6 | 119 nM and 69 nM | 2 | 0.0492 s⁻¹ and 0.0352 s⁻¹ | 415000 M⁻¹ s⁻¹ and 510000 M⁻¹ s⁻¹ | 
VH1/Vκ8 (antibody, IgG4, V domains shown, IgG4 (S241P), kappa) VH: EVQLLESGGGLVQPGGSLRLSCAASGFIFSSHGMSWVRQAPGKGLEWVATISSGGTYTYYPDSVKGRFTISRDNSKNTLYLQMNSLKAEDTAMYYCARHDFDYDAAWFAYWGQGTLVTVSS VL: EIVLTQSPATLSLSPGERATLSCRANSSVSYMYWYQQKPGQAPRPWIYLTSNRATGVPARFSGSGSGTDYTLTISSLEPEDFAVYYCQQWSSNPPTFGQGTKLEIK | no binding | no binding | no binding | 131 nM | 3.2 | 95 nM | 1.8 | 0.0406 s⁻¹ | 430000 M⁻¹ s⁻¹ | 1.8
VH1/Vκ9 (antibody, IgG4, V domains shown, IgG4 (S241P), kappa) VH: EVQLLESGGGLVQPGGSLRLSCAASGFIFSSHGMSWVRQAPGKGLEWVATISSGGTYTYYPDSVKGRFTISRDNSKNTLYLQMNSLKAEDTAMYYCARHDFDYDAAWFAYWGQGTLVTVSS VL: EIVLTQSPATLSLSPGERATLSCRANSSVSYMYWYQQKPGQAPRPLIYLTSNRATGVPARFSGSGSGTDYTLTISSLEPEDFATYYCQQWSSNPPTFGQGTKLEIK | no binding | no binding | no binding | 142 nM | 3.4 | 220 nM | 4 | 0.0504 s⁻¹ | 229000 M⁻¹ s⁻¹ | 4
VH1/Vκ10 (antibody, IgG4, V domains shown, IgG4 (S241P), kappa) VH: EVQLLESGGGLVQPGGSLRLSCAASGFIFSSHGMSWVRQAPGKGLEWVATISSGGTYTYYPDSVKGRFTISRDNSKNTLYLQMNSLKAEDTAMYYCARHDFDYDAAWFAYWGQGTLVTVSS VL: EIVLTQSPATLSLSPGERATLSCRANSSVSYMYWYQQKPGQAPRPWIYLTSNRATGIPARFSGSGSGTDFTLTISSLEPEDFATYYCQQWSSNPPTFGQGTKLEIK | no binding | no binding | no binding | 146 nM | 3.5 | 180 nM | 3.2 | 0.0511 s⁻¹ | 284000 M⁻¹ s⁻¹ | 3.2
VH1/Vκ12 (antibody, IgG4, V domains shown, IgG4 (S241P), kappa) VH: EVQLLESGGGLVQPGGSLRLSCAASGFIFSSHGMSWVRQAPGKGLEWVATISSGGTYTYYPDSVKGRFTISRDNSKNTLYLQMNSLKAEDTAMYYCARHDFDYDAAWFAYWGQGTLVTVSS VL: EIVLTQSPATLSLSPGERATLSCRANSSVSYMYWYQQKPGQAPRPLIYLTSNRATGIPARFSGSGSGTDYTLTISSLEPEDFATYYCQQWSSNPPTFGQGTKLEIK | no binding | no binding | no binding | 143 nM | 3.5 | 65 nM | 2.2 | 0.0268 s⁻¹ | 411000 M⁻¹ s⁻¹ | 2.2
VH2/Vκ7 (antibody, IgG4, V domains shown, IgG4 (S241P), kappa) VH: EVQLLESGGGLVQPGGSLRLSCAASGFIFSSHGMSWVRQAPGKGLEWVATISSGGTYTYYPDSVKGRFTISRDNSKNTLYLQMNSLRAEDTAMYYCARHDFDYDAAWFAYWGQGTLVTVSS VL: EIVLTQSPATLSLSPGERATLSCRANSSVSYMYWYQQKPGQAPRPWIYLTSNRATGVPARFSGSGSGTDFTLTISSLEPEDFATYYCQQWSSNPPTFGQGTKLEIK | no binding | no binding | no binding | 152 nM | 3.7 | 71 nM | 2.3 | 0.0258 s⁻¹ | 362000 M⁻¹ s⁻¹ | 2.4
VH2/Vκ8 (antibody, IgG4, V domains shown, IgG4 (S241P), kappa) VH: EVQLLESGGGLVQPGGSLRLSCAASGFIFSSHGMSWVRQAPGKGLEWVATISSGGTYTYYPDSVKGRFTISRDNSKNTLYLQMNSLRAEDTAMYYCARHDFDYDAAWFAYWGQGTLVTVSS VL: EIVLTQSPATLSLSPGERATLSCRANSSVSYMYWYQQKPGQAPRPWIYLTSNRATGVPARFSGSGSGTDYTLTISSLEPEDFAVYYCQQWSSNPPTFGQGTKLEIK | no binding | no binding | no binding | 125 nM | 3 | 125 nM | 2.3 | 0.0417 s⁻¹ | 334000 M⁻¹ s⁻¹ | 2.3
VH2/Vκ9 (antibody, IgG4, V domains shown, IgG4 (S241P), kappa) VH: EVQLLESGGGLVQPGGSLRLSCAASGFIFSSHGMSWVRQAPGKGLEWVATISSGGTYTYYPDSVKGRFTISRDNSKNTLYLQMNSLRAEDTAMYYCARHDFDYDAAWFAYWGQGTLVTVSS VL: EIVLTQSPATLSLSPGERATLSCRANSSVSYMYWYQQKPGQAPRPLIYLTSNRATGVPARFSGSGSGTDYTLTISSLEPEDFATYYCQQWSSNPPTFGQGTKLEIK | no binding | no binding | no binding | 110 nM | 2.7 | 96 nM and 75 nM | 1.9 |  |  | 
